# B1: sLCA5-ΔCQS: sLCA5 with alanine mutations in the CQS motif core; VQT motif intact (protein)
# chain: DTDLVTKRILSARLLKINELQNEVSELQVKLAELLKENKSLKRLQYRQEKALNKFEDAENEISQLIFRHNNEITALKERLRKSQEKERATEKRVKDTESELFRTKFSLQKLKEISEARHLPERDDLAKKLVSAELKLDDTERRIKELSKNLELSTNSFQRQLLAERKRAYEAHDENKVLQKEVQRLYHKLKEKERELDIKNIYSNRLPKSSPNKEKELALRKNAAAAADFADLCTKGVQTMEDFKPEEYPLTPETIMCYENKWEEPGHLTLDLQSQKQDRHGEAGILNPIMEREEKFVTDEELHVVKQEVEKLEDEWEREELDKKQKEKASLLER
# modifications: left off: MBP, N-terminal, kept | His6, C-terminal, kept
# notes: sLCA5 with alanine mutations in the CQS motif core; VQT motif intact
# B2: FLAG-LCA5: full-length LCA5 with N-terminal FLAG-tag (protein)
# chain: MGERAGSPGTDQERKAGKHHYSYLSDFETPQSSGRSSLVSSSPASVRRKNPKRQTSDGQVHHQAPRKPSPKGLPNRKGVRVGFRSQSLNREPLRKDTDLVTKRILSARLLKINELQNEVSELQVKLAELLKENKSLKRLQYRQEKALNKFEDAENEISQLIFRHNNEITALKERLRKSQEKERATEKRVKDTESELFRTKFSLQKLKEISEARHLPERDDLAKKLVSAELKLDDTERRIKELSKNLELSTNSFQRQLLAERKRAYEAHDENKVLQKEVQRLYHKLKEKERELDIKNIYSNRLPKSSPNKEKELALRKNAACQSDFADLCTKGVQTMEDFKPEEYPLTPETIMCYENKWEEPGHLTLDLQSQKQDRHGEAGILNPIMEREEKFVTDEELHVVKQEVEKLEDEWEREELDKKQKEKASLLEREEKPEWETGRYQLGMYPIQNMDKLQGEEEERLKREMLLAKLNEIDRELQDSRNLKYPVLPLLPDFESKLHSPERSPKTYRFSESSERLFNGHHLQDISFSTPKGEGQNSGNVRSPASPNEFAFGSYVPSFAKTSERSNPFSQKSSFLDFQRNSMEKLSKDGVDLITRKEKKANLMEQLFGASGSSTISSKSSDPNSVASSKGDIDPLNFLPGNKGSRDQEHDEDEGFFLSEGRSFNPNRHRLKHADDKPAVKAADSVEDEIEEVALR
# modifications: left off: FLAG, N-terminal, kept
# notes: full-length LCA5 with N-terminal FLAG-tag
# B3: LCA5: 697 amino acid long protein lebercilin, cellular (protein, UniProt Q86VQ0 1-697, looked up)
# chain: B2 chain
# modifications: full-length
# notes: 697 amino acid long protein lebercilin, cellular
# What was measured:
# LC8 = target: T1, LC8 (Homo sapiens, UniProt Q96FJ2); assay: isothermal titration calorimetry, sLCA5 fragments titrated with LC8; format: binding; details: ITC, PBS pH 7.4, 1 mM TCEP, 37 °C; MBP-fused sLCA5 titrated with LC8
# T1 construct: 6xHis (N); made in house; host or cells: E. coli BL21 (DE3) Rosetta
# T1 sequence (Q96FJ2 whole entry, the tested form may be a part): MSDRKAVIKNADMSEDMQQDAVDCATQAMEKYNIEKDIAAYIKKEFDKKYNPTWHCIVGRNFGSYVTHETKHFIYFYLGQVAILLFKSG
# Experimental: LC8 and MBP-fused LCA5 constructs were prepared in PBS supplemented with 1 mM TCEP. Before measurement, protein samples were dialyzed overnight in PBS pH 7.4 (Orange Scientific, OrDial D14 membrane). Peptides were diluted from stock with the buffer used for dialysis. The concentration of samples was determined based on absorbance at 280 nm in the case of proteins, and 205 nm for the peptide. Experiments were performed using MicroCal PEAQ-ITC (Malvern Panalytical), LCA5 peptides were measured at 25 °C, proteins were analyzed at 37 °C. Lebercilin peptide was injected into the cell 18 times 2 μl volumes, with 5 min timing between injections. In case of the protein, LCA5 was placed in the sample cell, and LC8 was injected during 37 injections, 1 μl each. The results were evaluated using MicroCal PEAQ-ITC Analysis Software.
# GST-fused LC8 = assay: GST pull-down of LC8 and sLCA5; format: binding; details: GST-LC8 bait, MBP-, 6x-His-fused sLCA5 prey, PBS, 1 mM DTT, room temperature; result in words
# Experimental: For the pull-down experiments, GST-fused LC8 was used as bait, and MBP-, 6x-His-fused LCA5 variants as prey. For controls, GST and MBP were used. Proteins were expressed in 100 ml cultures of E. coli BL21 (DE3) Rosetta cells as described above. Cells were harvested, resuspended in 5 ml PBS supplemented with 1 mg/ml lysozyme and 1 mM DTT, sonicated and clarified by centrifugation. 20 μl of Glutathione Sepharose 4B (Macherey–Nagel) (75%) resin was used for each experiment. Baits were incubated with the resin for 1 h at room temperature, then washed with PBS supplemented with 1 mM DTT. Prey proteins were added and incubated for one hour. The beads were washed and eluted by boiling in a 2 × SDS sample buffer and analyzed in tricine SDS page according to the protocol of Schagger et al[43].
# [1] = negative staining transmission electron microscopy of sLCA5-LC8 complexes; format: physicochemical
# Experimental: For TEM negative staining experiments, a JEOL JEM-1011 (JEOL Ltd., Tokyo, Japan) electron microscope was used. The purified LCA5-LC8 complexes or LC8 or LCA5 forms alone were put together by using LCA5-WT or the single or double mutants at 30 μM and LC8 at 150 μM concentration in a buffer of 20 mM Tris 70 mM NaCl, pH 7.4, and incubated at 37 °C for 1 h. The complexes were diluted to a final 0.2 mg/ml concentration in the buffer and applied to 300 mesh formvar/carbon-coated copper grids (SPI Inc., USA). After 2 min of incubation the surplus was removed by filter paper and 1% uranyl acetate was applied for 1 min as negative staining. Images were taken around the middle of the grid at 5000, 50,000, 150,000 and 300,000-fold magnification. The collected data was analyzed by Fiji ImageJ software, and the statistical analysis was carried out in Origin 8 software.
# [2] = analytical gel filtration; format: physicochemical; details: with LC8, 60 min at 37 °C vs non-incubated complex
# Experimental: For analytical gel filtration a Superose 6 Increase 10/300 (Cytiva) was used with an effective resolution between 5–5000 kDa range and a void volume above 5000 kDa. The column was equilibrated in DPBS supplemented with 200 μM TCEP. The calibration curve was fitted on the chromatogram of gel filtration standard mix (BioRad) with the addition of Dextran Blue to determine the void volume. 100 μl of LCA5 purified protein or LCA5-LC8 complex was injected at the concentration of 30 μM for LCA5 and 150 μM for LC8, with a flow rate of 500 μl/min immediately or after 60 min of incubation at 37 °C. For densitometric analysis, fractions were collected and 200 μl of samples were precipitated in 1.8 ml 96% ethanol at − 80 °C for 2 h. The samples were centrifugated for 30 min at 14,000 g, and dissolved in 15 μl of SDS sample buffer. 10 μl of each sample was run on Tricine-SDS gel. The calibration of the densitometry was performed on samples of known molar ratio of sLCA5 construct and LC8 (see the original gel used for calibration on Suplementary Fig. S16). Data evaluation was performed by using Origin 8 software and Fiji ImageJ software.
# HA-tagged LC8 = assay: co-immunoprecipitation of LC8 with full-length FLAG-LCA5 in HEK293 cells; format: cell-based, human; details: for co-immunoprecipitation of LC8: HEK-293, FLAG-LCA5 and HA-LC8 co-expressed 48 h, anti-LCA5 and anti-FLAG antibodies
# Experimental: HEK-293 cells were transfected with FLAG-LCA5-pcDNA3.1 + and HA-LC8-pcDNA3.1 + constructs and incubated for 48 h. After 48 h, cells were washed with ice-cold DPBS (Lonza) and lysed on ice with lysis buffer (50 mM TRIS 2 mM EDTA 100 mM NaCl 10% Glycerol and 0.5% IGEPAL supplemented with protease (Sigma Aldrich) and phosphatase (Sigma-Aldrich) inhibitors). Total protein concentration was determined by the BCA kit (Sigma Aldrich). For each co-immunoprecipitation reaction 1 mg total protein was used and 20 μg of anti-lebercilin (19,333-1-AP Proteintech), anti-LC8 (16,811–1-AP Proteintech), polyclonal antibody, anti-FLAG (8146 Cell Signaling Technologies), anti-MYC (2276 Cell Signaling Technologies) or anti-HA (sc-7392 Santa Cruz Biotechnology) monoclonal antibody was added respectively and incubated for 4 h at 4 °C. The immunocomplexes were incubated with protein A/G sepharose beads (Cell Signaling Technologies) overnight. The immunocomplex-containing beads were washed three times in lysis buffer, then two times in detergent-free lysis buffer, proteins were eluted by boiling in 2 × Laemmli buffer. The samples were analyzed by 10% tricine-SDS PAGE. The SDS gel was cut half above the 35 kDa marker band and subsequently blotted onto two separate Amersham Hybond PVDF membrane (GE Healthcare). The LCA5 containing upper half was blotted for 180 min, the LC8 containing lower part was blotted for 80 min. The membranes were blocked in 5% BSA and the LCA5 and LC8 containing parts are incubated with mouse anti-FLAG 1:1000 (8146 Cell Signaling Technologies), and rabbit anti-LC8 1:1000 (ab51603 Abcam) primary antibodies respectively overnight at 4 °C. After washing with TBS-T, membranes were incubated with secondary antibodies (ECL PLEX Goat-Anti-Rabbit IgG CY5 1:1500 and CL PLEX Goat-Anti-Mouse IgG CY3 1:1500, Ge Healthcare) for 1 h at room temperature, then scanned in a Typhoon scanner (GE Healthcare).
# LC8 in hTERT-RPE1 cells = assay: immunofluorescence colocalization of LCA5 and LC8; format: cell-based; details: for Pearson's correlation coefficient, LCA5 and LC8: Z-stack images, JACoP
# Experimental: hTERT-RPE1 cells were seeded on poly-lysine-coated 21 mm coverslips. After 24 h, cells were serum-starved for an additional 72 h. Cells were washed with DPBS (Lonza) two times and once in cytoskeletal buffer (10 mM PIPES, 100 mM NaCl, 3 mM MgCl2, 300 mM Sucrose, 5 mM EGTA, 0.5% Triton-X 100, pH 6.9)[44]. Subsequently, cells were fixed in a cytoskeletal buffer containing 4% PFA for 10 min at 37 °C. Fixed cells were washed with DPBS and permeabilised for an additional 30 min in 0.5% Triton-X 100 in DPBS and incubated for 1 h in a blocking buffer (2% BSA, 0.1% Triton-X 100 in DPBS) at room temperature. Primary and secondary antibodies were diluted in a blocking buffer. The cells were incubated with rabbit anti-lebercilin 1:200 (Proteintech 19,333-1-AP), goat anti-LC8 1:100 (Invitrogen PA5-47,957), mouse anti-acetylated-α-tubulin 1:15,000 (Sigma Aldrich 5335S) overnight at 4 °C. Finally, cells were treated with secondary antibodies (anti-goat-Alexa Fluor 488 1:800, anti-mouse-CY3 1:800, anti-rabbit-Alexa Fluor 647 1:800 Jackson ImmunoResearch) for 1 h at room temperature. Coverslips were mounted using ProLong Diamond antifade mountant with DAPI (Invitrogen) and imaged with an inverted Zeiss LSM 800, the image processing was completed with Fiji ImageJ software. The calculations of the colocalization were performed using the JACoP plugin of ImageJ software. The Pearson’s coefficient and the Manders coefficients were calculated on Z-stack images of primary cilia and centrosomes of hTERT-RPE1 cells using manual thresholds. For the statistical analysis of the colocalization a randomization based Costes method was used.
# [3] = centrosome, late interphase hTERT-RPE1 cells
# [4] = ciliary basal body, ciliated hTERT-RPE1 cells
molecule,measurement,setting,value
B1,− TΔS,LC8,0.07 kcal/mol
same,interaction with LC8 (GST pull-down),GST-fused LC8,maintained the interaction with LC8
same,measured diameter median of spherical complexes,"[1]; 30 μM sLCA5 + 150 μM LC8, 37 °C 1 h, 20 mM Tris 70 mM NaCl pH 7.4",32 nm
same,amount of detectable oligomeric particles,"[1]; TEM, result in words",notable amount of particles around the edges of the grids
same,void fraction increment on incubation,[2],35%
B2,co-immunoprecipitation of LC8,HA-tagged LC8,interaction was detected
same,co-immunoprecipitation of LC8,HA-tagged LC8; listed as FLAG-tagged LCA5,LC8 was co-precipitated
same,co-immunoprecipitation interaction,"HA-tagged LC8; HEK-293, FLAG-LCA5 and HA-LC8 co-expressed, precipitation with anti-HA and anti-LC8 antibodies",no
B3,thresholded Manders LC8 to LCA5 tM2,LC8 in hTERT-RPE1 cells; [3],0.574
same,thresholded Manders LCA5 to LC8 tM1,LC8 in hTERT-RPE1 cells; [3],0.929
same,"Pearson's correlation coefficient, LCA5 and LC8",LC8 in hTERT-RPE1 cells; [3],0.802
same,thresholded Manders LC8 to LCA5 tM2,LC8 in hTERT-RPE1 cells; [4],0.718
same,thresholded Manders LCA5 to LC8 tM1,LC8 in hTERT-RPE1 cells; [4],0.671
same,"Pearson's correlation coefficient, LCA5 and LC8",LC8 in hTERT-RPE1 cells; [4],0.715

# From publication PMC9481538, “The interaction between LC8 and LCA5 reveals a novel oligomerization function of LC8 in the ciliary-centrosome system” (Scientific Reports, 2022)
